Target: the molecule itself
Experiment: X-ray crystal structure of the complex

B1: P94S mutant F2F3 fragment of human CPSF30 (variant used in the X-ray crystal structure determination) (other)
chain: SGEKTVVCKHWLRGLCKKGDQCEFLHEYDMTKMSECYFYSKFGECSNKECPFLHIDPESKI
notes: also called F2F3 with Ser in place of Pro at position 94; F2F3-A; not shown: N-terminal hexaHis tag
  binding result: binds

From patent US20140308307A1 (University of Texas, published 2014)
